Results: patent US20160208003A1 (AFFITECH RESEARCH, published 2016)
Positions count from the first letter of the chain named. Several values for one entry are separate records, joined by “and”; a condition that tells them apart may be missing. Equal entries are not always repeated. Each block holds one binder with its values, some of them ahead of it.

Key:
[1] = target: T1, human CC chemokine receptor 4 (CCR4) (human, UniProt P51679 1-360); test: cell-based or functional assay
T1 sequence (looked up): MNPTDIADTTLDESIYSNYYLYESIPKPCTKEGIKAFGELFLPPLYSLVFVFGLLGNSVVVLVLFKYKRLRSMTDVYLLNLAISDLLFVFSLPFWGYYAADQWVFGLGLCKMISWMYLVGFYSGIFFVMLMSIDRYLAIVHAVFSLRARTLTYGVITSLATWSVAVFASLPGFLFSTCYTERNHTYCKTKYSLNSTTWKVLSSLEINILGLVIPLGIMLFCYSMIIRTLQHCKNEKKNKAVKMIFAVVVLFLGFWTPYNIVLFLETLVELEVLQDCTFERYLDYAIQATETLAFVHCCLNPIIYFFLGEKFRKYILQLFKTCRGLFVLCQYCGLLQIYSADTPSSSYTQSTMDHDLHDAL

[2] = target: T1, human CC chemokine receptor 4 (CCR4); test: calculated from the IC50; CCRF-CEM cells, competitor biotinylated MDC
Method: (§1) The competition binding assays were performed with biotinylated MDC or biotinylated TARC on DT-40-CCR4+ and CCRF-CEM cells. DT40 and CCRF-CEM cells were cultured as described in Example 2. TARC and MDC were biotinylated using standard procedures. The biotinylation process causes some losses, so the concentrations of biotinylated MDC and TARC recited herein are approximate.
(§2) The cells were harvested from culture flasks, washed 2 times with PBS (400×g, 5 min, 4° C.) and resuspended in PBS containing 0.2% BSA and 0.09% NaN3. 1×10^5 cells per well were aliquoted into V-shaped 96-well plates (Greiner Bio-One, Frikenhausen, Germany). Cells were centrifuged (400×g, 5 min, 4° C.) and resuspended in 50 μl IgG, single chain or unlabeled ligand (1:10 dilution series starting on 100/500/26, 4 μg/ml) mixed with a fixed concentration of biotinylated ligand (10 or 20 nM, see legend to FIG. 24). The cells were incubated for 2 hours at 4° C. and mixed with a pipette every 45 min. The cells were washed three times with 150 μl PBS with 0.2% BSA and 0.09% NaN3 and stained with 3 μg/ml streptavidin PE (BD Biosciences) for 45 minutes at 4° C. […] Apparent binding affinities (KD) were calculated according to the following equation derived from previously described methods (Kipriyanov et al, 1997b; Schodin & Kranz, 1993): […]

[3] = target: T1, human CC chemokine receptor 4 (CCR4); test: calculated from the IC50; DT-40-CCR4+ cells, competitor 3.3 nM biotinylated IgG 9E
Method: (§3) DT40 and CCRF-CEM cells were cultivated as described in Example 2. The cells were harvested from culture flasks, washed 2 times with PBS (400×g, 5 min, 4° C.) and resuspended in PBS containing 0.2% BSA and 0.09% NaN3. 1×10^5 cells per well were aliquoted into V-shaped 96-well plates (Griner Bio-One, Frikenhausen, Germany). Cells were centrifuged (400×g, 5 min, 4° C.) and resuspended in 50 μl IgG 9E10J or KM3060var (dilution series starting at 5 μg/ml) mixed with biotinylated competitor antibody 9E (0.1 or 0.5 μg/ml). The cells were incubated for 2 hours at 4° C., mixing with a pipette every 45 min. The cells were washed three times with 150 μl PBS with 0.2% BSA and 0.09% NaN3 and stained with 3 μg/ml streptavidin PE (BD Biosciences) for 45 minutes at 4° C. Cells were washed, resuspended in 200 μl PBS with 0.2% BSA and 0.09% NaN3, and transferred to a U-shaped 96 well Costar (Corning, Schiphol-Rijik, The Netherlands) plate for flow cytometry using an FACS Canto II flow cytometer (BD Biosciences, Heidelberg, Germany).

[4] = target: T1, human CC chemokine receptor 4 (CCR4); test: flow cytometry competition on CCRF-CEM cells; IgG titrated, competitor biotinylated TARC (ca. 20 nM)
Method: as §1, §2

[5] = target: T1, human CC chemokine receptor 4 (CCR4); test: flow cytometry, IgG titration on CCRF-CEM cells; one site-specific binding fit (Prism)
Method: (§4) The IgG forms of antibodies 17G, 9E and KM3060var using various CCR4⁺ cell types were used (see Example 2).
(§5) For the flow cytometry experiments, the cells were harvested from the culture flasks, washed 2 times with PBS, re-suspended in PBS with 0.2% BSA and 0.09% NaN₃ and finally aliquoted 1×10⁵ cells per well into V-shaped 96-well plates (Greiner Bio-One, Frickenhausen, Germany). Cells were centrifuged at 400×g for 5 min and then incubated at 4° C. for 45 min with different antibody dilutions.
(§6) After washing with PBS with 0.2% BSA and 0.09% NaN₃, the cells were stained with 10 μg/ml of RPE-conjugated goat anti-human IgG (AbDSerotec, Düsseldorf, Germany) for 30 minutes at 4° C. The stained cells were washed, re-suspended in 200 μl PBS with 0.2% BSA and 0.09% NaN₃ and transferred to a U-shaped 96-well plate (Corning, Schiphol-Rijk, The Netherlands) for acquisition on EasyCyte flow cytometer (Guava Technologies, Hayward, Calif., USA).

[6] = target: T1, human CC chemokine receptor 4 (CCR4); test: flow cytometry, IgG titration on CCR4+ DT40 cells; one site-specific binding fit (Prism)
Method: as §4, §5, §6

[7] = target: T1, human CC chemokine receptor 4 (CCR4); test: flow cytometry, IgG titration on CCR4+ DT40 cells (2); one site-specific binding fit (Prism)
Method: as §4, §5, §6

[8] = target: T1, human CC chemokine receptor 4 (CCR4); test: calculated from the IC50 (KD=IC50/(1+[bio-IgG 9E]/KD 9E)); DT-40-CCR4+ cells, competitor 3.3 nM biotinylated IgG 9E
Method: as §3

ADCC of CCRF-CEM cells, EC50 (mean, N=2) [1]: 8.7 ng/mL | Kd [2]: 0.2 nM | Kd [3]: 0.09 nM | IC50 [4]: 4.26 nM and 4.57 nM
B1: 9E10J IgG (full length human IgG1, lambda) (antibody, V domains shown)
VH: QVQLVQSGAEVKKPGSSVKVSCKASGGTFSSYAISWVRQAPGQGLEWMGGIIPIFGTANYAQKFQGRVTMTRDTSTSTVYMELSSLRSEDTAVYYCARRGGSYFDYWGQGTLVTVSS
VL: SYVLTQPPSASGTPGQSVTISCSGSTSNIGSHYVFWYQQLPGTAPRLLIYRNHQRPSGVPDRLSGSKSGTSASLAISGLRSEDEADYYCAVWDDTLSGWVFGGGTKLTVLG
notes: also called IgG 9E10J; unmodified 9E10J

Kd [5]: 0.39 nM | Kd [6]: 0.72 nM | Kd [7]: 0.17 nM | Kd [8]: 2.1 nM
B2: 9E IgG (full length human IgG1, lambda) (antibody, V domains shown)
VH: B1 VH with S31N, M70I, R72A, T74E, V79A
VL: B1 VL
notes: also called IgG 9E; IgG1 9E
